{"source": "paper PMC3540207", "about": "(Nature structural & molecular biology, 2012)", "target": "ATG3 (human, recombinant) (human, UniProt Q9NT62 1-314)", "sequence (Q9NT62 whole entry)": "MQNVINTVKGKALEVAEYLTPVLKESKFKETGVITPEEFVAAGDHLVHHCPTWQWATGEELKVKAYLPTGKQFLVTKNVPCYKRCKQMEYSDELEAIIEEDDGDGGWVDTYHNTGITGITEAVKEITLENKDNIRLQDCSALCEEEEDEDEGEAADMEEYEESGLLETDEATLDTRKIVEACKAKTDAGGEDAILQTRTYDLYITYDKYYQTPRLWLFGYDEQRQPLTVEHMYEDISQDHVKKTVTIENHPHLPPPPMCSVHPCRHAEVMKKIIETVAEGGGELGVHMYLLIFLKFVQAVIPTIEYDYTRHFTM", "test": "ITC", "data": [{"binder": "unconjugated ATG12 (human, recombinant) (natural protein, UniProt O94817 1-140, looked up) MAEEPQSVLQLPTSIAAGGEGLTDVSPETTTPEPPSSAAVSPGTEEPAGDTKKKIDILLKAVGDTPIMKTKKWAVERTRTIQGLIDFIKKFLKLVASEQLFIYVNQSFAPSPDQEVGTLYECFGSDGKLVLHYCKSQAWG", "values": [{"measurement": "Kd", "result": 117, "unit": "nM"}]}]}
